Columns and labels:
[1] = test system: BM cells; experiment: Step 2 culture: DC maturation and IL-12 production upon CpG+LPS after Step 1 conditioning; format: cell-based, mouse; conditions: for Step 2 response to TLR agonists (DC maturation) after Step 1 conditioning: CpG+LPS stimulation
Text: Following Step 1 conditioning, BM cultures were washed thoroughly and exposed to TLR agonists to test the cells' potential for DC maturation and IL-12 production during Step 2 culture. Since TLR9 and TLR4 were invariably expressed by mouse BM cells at the end of Step 1 cultures (not shown), we standardly employed CpG (ODN 1826) and lipopolysaccharide (LPS) to stimulate coordinate activation of MyD88 and TRIF pathways (Napolitani, G. et al. Nat. Immunol. 6, 769-776 (2005)).
(§1) Step 2 was initiated (0 hr) in CM, rmGMCSF and optionally rmIL4. Step 2 cultures were performed in 24 well cluster plates, 4 million BM cells per well in 2 ml CM. DC1 polarization stimuli such as CpG (ODN 1826, 5 μM) and LPS 50 ng/ml were added between 18-24 hrs, and cells harvested at 40-44 hrs for analyses. When included, immunosuppressive agents rmIL10, rmVEGF, rhTGFβ1 or PGE2 were added between 0 and 24 hrs of Step 2 culture at doses specified in Results. Alternatively, particulate tumor cells, either viable unirradiated, viable irradiated (10,000 cGy), or killed freeze-thawed lysate (Cohen, P A et al. Cancer Res. 54, 1055-1058 (1994)), were added to Step 2 BM cells. Viable tumor cells were sometimes labelled with CFSE (Molecular Probes, Eugene, Oreg.) to allow their identification and exclusion during subsequent FACS analyses (Peng, L. et al. J. Immunol. 169, 4811-4821 (2002)).
For routine multicolor FACS analyses, BM cells were cultured in anti-CD32 mAb plus normal mouse IgG to block FcRs, then directly stained with conjugated specific mAbs or isotype controls as listed in the figures (BD-Pharmingen, Mountain View, Calif.) (Peng, L. et al. J. Immunol. 165, 5738-5749 (2000)). When additionally assessing IL12 production at the cellular level, the last 16 hrs of Step 2 culture were performed in monensin (Golgistop™, BD-PharMingen). Then, following FcR block and direct staining of surface molecules, cells were fixed in formalin and permeabilized in tween (CytoPerm/CytoFix™, PharMingen), then additionally stained with PE-anti-mouse IL12p40 (BD-Pharmingen) or isotype control.
Assessments of supernatant contents of mIL12p70 heterodimer were performed with BD-Pharmingen reagents. mIFNα and mIFNβ ELISAs were performed with kits from PBL Biomedical Laboratories (New Brunswick, N.J.).

[2] = single agent; cited from earlier work
[3] = test system: BM cells; experiment: Step 2 culture: spontaneous DC maturation without exogenous maturation stimuli; format: cell-based, mouse
Text: DC differentiation typically arrests at the immature stage unless DCs are exposed to additional signals such as CD40 ligation, calcium ionophore or TLR agonists (Xu, S. et al. J. Immunol. 171, 2251-2261 (2003); Bonifaz, L. et al. J. Exp. Med. 196, 1627-1638 (2002); Napolitani, G. et al. Nat. Immunol. 6, 769-776 (2005); Czerniecki, B J et al. J. Immunol. 159, 3823-3837 (1997); Mailliard, R B et al. Cancer Res. 64, 5934-5937 (2004)). […] Instead, uniform upregulation of MHC Class II and CD11c ensued within hours of transfer from Flt3L+IL6 into GMCSF, followed by upregulation of CD40, co-stimulatory molecules and CCR7 between 48 and 72 hours of Step 2 culture.
as §1

[4] = test system: CD34^pos stem cell subpopulation; experiment: Step 1 proliferative culture of fresh bone marrow: numeric expansion; format: cell-based, mouse; conditions: fresh mouse BM, 6-7 day Step 1 culture
Method: FIG. 6 is a chart showing numeric expansion resulting from the exposure of bone marrow (BM) suspensions to various factors. BM freshly harvested from C57BL/6 mice was cultured for 6 days in the specific factors, then harvested and counted. Each bar represents 3-11 determinations±s.d., each performed in synchronous comparison to at least five other groups. […] Synergistic expansions reflected a 35-80 fold selective outgrowth of the CD34^pos subpopulation (see FIG. 10);
FIG. 10 is a histogram showing gross numeric expansion of fresh bone marrow (BM) reflective of selective outgrowth of the CD34^pos subpopulation. Freshly prepared mouse BM cell suspensions were stained with FITC-anti-CD34 mAb to enable isolation of CD34^pos and CD34^neg subpopulations by a FACSAria cell sorter. CD34^pos cells initially represented 10.8±7% of the total BM cells. The following groups were then cultured for 6 days in 75 cm^2 flasks, either in Flt3L+SCF+IL6 (striped bars) or in Flt3L+IL6 (solid bars): “Unfractionated BM” (12-15 million per flask); “FACS sorted CD34^neg cells” (12-15 million per flask); “FACS sorted CD34^pos cells” (2-3 million per flask); or “FACS sorted, unirradiated CD34^pos cells plus irradiated (3,000 cGy) CD34^neg cells.” Labels above bars indicate fold numeric expansion during the 6 day culture. […] (Not done=group not done);
We cultured fresh mouse BM in two stages, a 6-7 day proliferative phase (Step 1) and a 2-3 day post-proliferative phase (Step 2). […] FACS sorting experiments confirmed that such expansion represented a net 35-80 fold proliferation of the minor (<12%) CD34^pos stem cell subpopulation, with rapid dropout of the initially CD34^neg subpopulation (FIG. 10). Stem cell proliferation persisted well past day 7 if medium and factors were adequately replenished (not shown).
Single cell suspensions were prepared from the femurs and tibias of healthy mice (Kuriyama, H. et al. Dev. Biol. (Basel) 116, 169-178 (2004)). Following RBC lysis by ammonium chloride, no further processing was performed. […] BM cells were normally cultured for 6-7 days, harvested, counted, and washed twice in PBS prior to initiation of Step 2 cultures.

[5] = test system: STAT5KO BM; experiment: Conditioning of STAT5 knockout BM; format: cell-based, mouse
Method: (§2) FIG. 18 illustrates responses of STAT knockout vs. wildtype littermate BM to Flt3-L+IL-6 vs. GMCSF-containing conditioning regiments. […] BM was obtained from KO mice or from matched wildtype LMs, placed in standard Step 1 cultures with Flt3-L+IL-6, Flt3-L+IL-6+GMCSF, or GMCSF alone as conditioning agents, then placed in 48 hr Step 2 cultures with GMCSF+IL-4 with CpG+LPS included during the final 18 hours. […] Data are presented as mean±s.d. of 3 replicates and are representative of three (STAT5KO vs LM) or two (STAT3KO vs LM) independently performed experiments;
(§3) We examined how STAT knockout BM preparations responsed to Flt3L+IL-6 conditioning. […] Therefore, the proliferative and differentiative impacts of Flt3-L+IL-6 conditioning were absolutely STAT3-dependent, whereas final phenotypic maturation and DC1-polarization were at least partially STAT5-dependent.
(§4) We also examined how STATKO BM preparations responded to GMCSF-containing Step 1 regimens (GMCSF alone, Flt3-L+GMCSF, or Flt3-L+GMCSF+IL-6). […] Therefore, all tested GMCSF-containing regimens promoted STAT5-dependent DC differentiation, with later phenotypic maturation and DC1-polarization proving susceptible to inhibition through STAT3.

[6] = test system: CD11c^pos (committed DC) subpopulation; experiment: In vivo responses to TLR agonists; parameters: species or system mouse; conditions: i.p. treatment
Method: FIG. 21 is a bar graph showing in vivo responses to TLR agonists. Mice were injected for 6 days with 10 mcg i.p. rhFlt3-L or no treatment. On the subsequent day, some mice were treated with a single i.p. injection for rmGMCSF 12 mcg. On the subsequent day, some mice were injected with i.p. with 50 mcg CpG (ODN 1826) and 100 mcg pI:C. […] The next day, mice were euthanized and spleens counted and analyzed by FACS for the activation status of the CD11c^pos (committed DC) subpopulation. MHC Class II, CD40, and CD86 (B7.2) were co-analyzed.

[7] = test system: STAT3KO BM; experiment: Conditioning of STAT3 knockout BM; format: cell-based, mouse
Method: as §2, §3, §4

[8] = test system: L-selectin^low T cells; experiment: T cell co-cultures with variously conditioned DCs; format: cell-based, mouse; conditions: DCs prepared after the named Step 1 conditioning
Method: Step 2 DC cultures were performed in rGMCSF and rIL-4 with irradiated MCA-203 cells added at 24 hr and CpG+LPS added at 44 hr. Four hours later, DCs were harvested for co-culture with L-selectin^low T cells freshly harvested from MCA-203 tumor-bearing mice. T cells were co-cultured with DCs at an 8:1 ratio or were activated with immobilized anti-CD3. […] Cultures shown also received exogenous IL-2, IL-7 and IL-15.
Cultures shown also received exogenous IL2, IL7 and IL15.
Conditioned DC precursors were transferred to Step 2 culture, exposed to viable irradiated tumor, optionally further activated with CpG+LPS, then co-cultured with tolerized TDLN T cells from mice bearing the relevant tumor.
Prior to harvest of T cells from tumor-bearing mice, DCs were prepared under various Step 1 conditions in CM; Step 2 was performed in 1% non heat-deactivated mouse serum instead of FCS (CM-MS), during which BM cultures were exposed to viable irradiated tumor cells, then CpG+LPS as denoted in Results. On the day of DC harvest, T cells were freshly harvested from the tumor-draining lymph nodes of mice bearing 12 day tumors. The L-selectin^low (tolerized pre-effector) fraction of T cells was isolated by negative selection as described previously (Peng, L. et al. J. Immunol. 165, 5738-5749 (2000); Wang, L. et al. J. Translational Med. 2, 41 (2004)), and cultured in CM-MS with immobilized anti-CD3 (Peng, L. et al. J. Immunol. 165, 5738-5749 (2000); Wang, L. et al. J. Translational Med. 2, 41 (2004)) or variously conditioned DCs. Beginning on day 2 of T cell culture, some groups also received rhIL2 (24 I.U./m1), or rhIL2, rhIL7 (50 ng/ml) and rhIL15 (5 ng/ml). T cells were harvested for assays and adoptive therapy after 12 days of culture.

[9] = test system: conditioned BM cells; experiment: Tumor contact during Step 2 culture: DC maturation and IL12 production; format: cell-based, mouse
Method: Because DC ingestion of cellular material can induce tolerogenic DCs (Bonifaz, L. et al. J. Exp. Med. 196, 1627-1638 (2002)), we tested the impact of exposing DCs to large volumes of tumor at 16-24 hours of Step 2 culture in GMCSF, to determine tumor's impact on subsequent spontaneous maturation. To cluster plate wells each containing 4 million conditioned BM cells, we added either 4 million freeze-thawed (killed) tumor cells; 3 million irradiated (10,000 cGy), trypan-excluding tumor cells; or 2 million unirradiated, actively proliferating tumor cells. Given the much larger dimensions of viable tumor cells compared to the cultured BM cells, these represented voluminous tumor challenges.
as §1

[10] = test system: mouse tumors; conditions: single agent; cited from earlier work

Row | Molecule | Step 2 response to TLR agonists (DC maturation) after Step 1 conditioning [1] | myeloproliferative activity in animals [2] | spontaneous DC maturation during Step 2 culture ([3]; after Step 1 conditioning, no exogenous maturation stimuli) | numeric expansion during Step 1 culture [4] | effect of GMCSF addition during Step 2 culture ([1]; GMCSF added in Step 2 only) | effect of co-conditioning with GMCSF on Flt3L+IL6's licensing impact ([1]; GMCSF present in Step 1) | proliferation and DC differentiation of STAT5KO BM [5] | effect of GMCSF as Step 1 agent on licensing of spontaneous DC maturation by Flt3L or Flt3L+IL6 [3] | activation of maturation markers MHC Class II, CD40, CD86 on CD11c^pos spleen cells [6] | survival / proliferation of STAT3KO BM in Step 1 conditioning [7] | maturational and IL-12p70 response of STAT3KO DCs ([7]; TLR stimulation, Step 2) | effect of conditioned DCs on tolerized T cell co-cultures (proliferation / toxicity) [8] | effect of GMCSF as Step 1 agent on licensing of tumor-induced activation by Flt3L+IL6 [9] | therapeutic properties against established mouse tumors [10]
1 | Flt3 ligand (protein, UniProt P49771 27-235, looked up, recombinant human Flt3 ligand, gift of Amgen) Fms-related tyrosine kinase 3 …: TQDCSFQHSPISSDFAVKIRELSDYLLQDYPVTVASNLQDEELCGGLWRLVLAQRWMERLKTVAGSKMQGLLERVNTEIHFVTKCAFQPPPSCLRFVQTNISRLLQETSEQLVALKPWITRQNFSRCLELQCQPDSSTLPPPWSPRPLEATAPTAPQPPLLLLLLLPVGLLLLAAAWCLHWQRTRRRTPRPGEQVPPVPSPQDLLLVEH | nearly global licensing for pronounced TLR reactivity | highly myeloproliferative | spontaneous tendency to complete DC maturation | yielded only a fraction of culture input |  |  |  |  |  |  |  |  |  | 
2 | granulocyte-macrophage colony stimulating factor (protein, UniProt P01587 18-141, looked up, murine GMCSF from Immunex) Granulocyte-macrophage …: APTRSPITVTRPWKHVEAIKEALNLLDDMPVTLNEEVEVVSNEFSFKKLTCVQTRLKIFEQGLRGNFTKLKGALNMTASYYQTYCPPTPETDCETQVTTYADFIDSLKTFLTDIPFECKKPGQK | infrequent and/or blunted responses to the TLR agonists |  |  |  | not at all inhibitory | abrogated | strikingly ineffective for generating DCs | fully abrogated | further enhanced | normal proliferation kinetics | abnormally heightened maturational and IL-12p70 response to TLR stimulation | ineffective for propagating the T cells | fully abrogated | 
3 | interleukin-6 (protein, UniProt P08505 25-211, looked up) Interleukin-6: FPTSQVRRGDFTEDTTPNRPVYTTSQVGGLITHVLWEIVEMRKELCNGNSDCMNNDDALAENNLKLPEIQRNDGCYQTGYNQEICLLKISSGLLEYHSYLEYMKNNLKDNKKDKARVLQRDTETLIHIFNQEVKDLHKIVLPTPISNALLTDKLESQKEWLRTKTIQFILKSLEEFLKVTLRSTRQT |  |  |  |  |  |  |  |  |  |  |  |  |  | extremely potent therapeutic properties

— patent US8247227B2, “Dendritic cell precursors” (The Cleveland Clinic Foundation, priority 2006, dated 2012)
